Measured values: US10736923B2, “Methods and compositions for generating chondrocyte lineage cells and/or cartilage like tissue” (UNIVERSITY HEALTH NETWORK, priority 2013, dated 2020)

B1: TGFB3: TGFbeta agonist (protein, UniProt P10600 301-412, looked up)
Transforming growth factor …: ALDTNYCFRNLEENCCVRPLYIDFRQDLGWKWVHEPKGYYANFCSGPCPYLRSADTTHSTVLGLYNTLNPEASASPCCVPQDLEPLTILYYVGRTPKVEQLSNMVVKSCKCS

Legend:
Format in all cases: cell-based, human
hiPSCs = assay: Induction of primitive streak-like mesoderm from hiPSCs, flow cytometry; settings: hIPSCs induced with Activin A 3 ng/ml, BMP4 1 ng/ml, basic FGF 5 ng/ml and CHIR99061 1 micromolar, day 1 to day 3
Excerpt: FIG. 1. Serum-free differentiation of paraxial mesoderm, chondrocyte progenitors, and cartilage tissues from human pluripotent stem cells (hPSCs). […] On day 4 (T4), mesoderm populations are monitored by the expression of CD56 and PDGFRa on the cell surface by flow cytometry (B). Day 4 mesoderm cells are specified to a paraxial mesoderm fate in monolayer culture by treatment of Dorsomorphin, a BMP inhibitor, a TGFbeta inhibitor SB431542, and bFGF, from days 4 to 6 and bFGF from days 4 to 15 (stage 2). Day 15 paraxial mesoderm cells can generate chondrocyte progenitors by plating in a high density ‘spot’ termed micromass, or by plating onto collagen coated membrane filters (not shown) in the presence of TGFB3 for approximately 10 days (stage 3). Chondrocyte progenitors can be specified to articular chondrocytes or growth plate-like chondrocytes in a cartilage tissue format during stage 4 of differentiation by extended stimulation with TGFB3 (articular) or […] (growth plate-like) for example for 12 weeks. Tissues have been kept in culture for at least 7 months.

fetal chondrocytes = assay: CD73 flow cytometry of fetal chondrocytes in micromass culture; settings: 9 to 10 weeks of micromass culture
Excerpt: (§1) FIG. 6. CD73 is expressed by articular chondrocytes. Flow cytometric analyses of primary chondrocytes (A) Healthy adult articular chondrocytes and iliac crest GPC-like chondrocytes, (B) Primary fetal chondrocytes, primary (C) or passaged (passage (P)2, D) fetal chondrocytes after 9 to 10 weeks of micromass culture in the presence of TGFB3 or BMP4, and (E) hPSC-derived chondrocytes after 11 weeks derived in the presence of TGFB3 or BMP4. (F) Time course of CD73 and PDGFR-beta cells surface expression on T12 and T15 paraxial mesoderm populations, and micromass cultures treated with TGFB3 after 3 days, 10 days, and 2 weeks. (G) Time course of CD73 expression on TGFB3-treated micromasses after 3 days, 7 days, 10 days, and 2 to 5 weeks.
(§2) Primary (P0) and passaged (P2) fetal chondrocytes can also be cultured in micromass with TGFB3 or BMP4, similar to how hPSC-derived cartilage tissues are formed. TGFB3-treated fetal P0-derived or fetal P2-derived cartilage tissues contain over 93% CD73 positive cells, while BMP4 treatment reduces the percentage of CD73+ cells to 70% and 61% respectively (FIG. 6C,D). CD73 expression is also expressed by over 98% of hPSC-derived cartilage tissues derived with TGFB3-treatment (FIG. 6E). The percentage of CD73+ cells is reduced to only about 57% of cells after BMP4-treatment. Thus, CD73 marks primary healthy adult ACs, a proportion of healthy fetal chondrocytes, fetal chondrocytes or passaged fetal chondrocytes cultured as micromasses in TGFB3, and TGFB3-treated articular chondrocyte-like cells derived from human PSCs.

[1] = tested on: hPSC-derived paraxial mesoderm; assay: Chondrocyte specification in micromass culture with TGFB3 or BMP4 (histology, scatter flow cytometry, qRT-PCR, immunostaining)
Excerpt: FIG. 4. TGFB3 and BMP4 specify chondrocytes and cartilage-like tissues with articular cartilage and growth plate cartilage phenotypes. (A) Micrographs of 5 week old micromasses derived with TGFB3 or BMP4, 20× magnification. (B) Tissue histology (stained with toluidine blue) of 13 week cartilage tissues derived with TGFB3 or BMP4. […] (C) Flow cytometric analysis of forward and side cell scatter parameters of 3 week and 5 week old micromasses. Side scatter indicates cell granularity and forward cell scatter indicates cell size. (D) Comparison of hPSC-derived micromass tissues to fetal primary chondrocyte derived micromass tissues and the developing human fetal femur cartilage. Articular cartilage regions appear to have smaller cells in size compared to growth plate like regions, which contain cells which appear enlarged (hypertrophic). Cartilage tissues in micromass as well as in the fetal femur stain uniformly with the toluidine blue stain (images are pink/purple in color and indicate the presence of cartilage proteins). The BMP4-treated micromass tissues contain a large number of enlarged cells which is similar to the bottom panel of the fetal cartilage which represents a growth plate cartilage. TGFB3 treated micromass cultures contain fewer, if any, enlarged chondrocytes, and appear similar to the upper panel of the fetal cartilage which is the site of articular cartilage. (E) Micrograph using GDF5 instead of BMP4 to generate hypertrophic chondrocytes. (F) Histological analyses of cartilage tissues derived from hiPSCs stained with Toluidine blue after 12 weeks. (G,H) Immunohistochemical staining of hESC-derived cartilage tissues for type II Collagen (G, 8 week tissues), and lubricin (H, 12 week tissues).
FIG. 5. Gene expression analyses of chondrocyte specification in the presence of TGFB3 or BMP4 during stages 3 and 4 of differentiation respectively. General chondrocyte genes Sox9 (A) and collagen 2 (B), hypertrophic genes collagen 10 (C), Runx2 (D), osterix (E) and alkaline phosphatase (F), articular cartilage associated genes lubricin (G) and cartilage intermediate layer protein 2 (CILP2) (H), interzone-related (joint progenitor) genes GDF5 (I), ERG (J) and Wnt9a (K). Expression is copy number relative to TBP (n=3 to 8 biological replicates) and is compared to primary fetal chondrocytes (aged 16 to 19 weeks, n=4), primary healthy adult articular chondrocytes (n=2), and growth plate-like chondrocytes isolated from the iliac crest of an adult (n=1). T15 Mesoderm indicates day 15 hESC-derived paraxial mesoderm (DM+FGF-treated). Error bars indicate s.e.m.
FIG. 8. TGFβ1, TGFβ2, and TGFβ3 generated articular chondrocytes from hPSC-derived paraxial mesoderm. COL2A1, lubricin, and CILP2 gene expression after 12 weeks of micromass culture in the presence of TGF agonists as indicated (10 ng/ml). Values represent copy number mRNA relative to TBP. Error bars indicate s.e.m.
Previous studies have shown that TGFBeta/BMP signaling is required to generate chondrocyte progenitors from paraxial mesoderm. […] Following 10 days of TGFb3 treatment (day 25 total), cultures could be switched to media containing BMP4 or maintained in TGFb3 (stage 4) in order to specify subsets of chondrocytes (articular/non-hypertrophic or growth plate/hypertrophic). To determine the chondrocyte potential of the day 15 mesoderm populations, the cells were plated at high cell density in a 20 microliter volume on tissue culture treated Petri dishes for an hour (micromass) and then the ‘spot’ was submerged/covered with media. In our initial studies, the cells were ‘spotted’ in a media containing 2% fetal bovine serum. However, this short serum exposure can be omitted with no effects on cartilage formation at later stages, making this protocol optionally serum-free. After 2 to 3 days, serum-free media containing TGFb3 is added to the culture to generate chondrocyte progenitors. […]

[2] = tested on: hPSC-derived chondrocytes; assay: CD73 flow cytometry of hPSC-derived cartilage tissues; settings: hPSC-derived cartilage tissues after 11 weeks
Excerpt: as §1
as §2, with “Thus, CD73 marks primary healthy adult ACs, a proportion of healthy fetal chondrocytes, fetal chondrocytes or passaged fetal chondrocytes cultured as micromasses in TGFB3, and TGFB3-treated articular chondrocyte-like cells derived from human PSCs.” left out

Row | Molecule | expression of cell surface markers CD56, PDGFRalpha and KDR (hiPSCs) | CD73 positive cells (fetal chondrocytes; passaged (P2) fetal chondrocytes) | CD73 positive cells (fetal chondrocytes; primary (P0) fetal chondrocytes) | forward and side scatter of live cells (cell size, granularity) ([1]; 3 week and 5 week micromasses) | chondrocyte morphology ([1]; 5 week old micromasses) | Lubricin protein (immunohistochemistry) ([1]; 12 week micromass tissue) | tissue histology (toluidine blue), chondrocyte size ([1]; 13 week old tissues, GDF5 instead of BMP4) | expression of mature AC genes, such as lubricin and CILP2 ([1]; extended period of time (up to 12 weeks)) | COL2A1 expression ([1]; qRT-PCR, by 2 weeks of culture) | SOX9 expression ([1]; qRT-PCR, by 2 weeks of culture) | CD73 positive cells [2]
1 | Cc1cnc(-c2cnc(NCCNc3ccc(C#N)cn3)nc2-c2ccc(Cl)cc2Cl)[nH]1 [CHIR99061] | also expresses CD56, PDGFRalpha and KDR |  |  |  |  |  |  |  |  |  | 
2 | B1 |  | over 93% | over 93% | tight population of smaller, less granular cells | small fibroblastic-like phenotype | present | small cells (chondrocytes) dispersed evenly throughout the tissue | allows for the expression of mature AC genes | upregulated | upregulated | over 98%
